Laboratory results published in patent US8026342B2, “Compositions and methods for binding sphingosine-1-phosphate” (Lpath, Inc., priority 2006, dated 2011).

Columns and labels:
CNV and vascular leakage = assay: Vascular leakage and CNV area after laser rupture of Bruch's membrane; format: in vivo, C57BL/6 mice; details: 5 μg intraocular
Procedure: C57BL/6 mice (n=10) underwent laser rupture of Bruch's membrane in 3 locations in each eye and were given an intraocular injection of 5 μg of sonepcizumab in one eye and vehicle in the contralateral eye. At one week after laser rupture, the mice were given an intraperitoneal injection of 12 μl/g body weight of 1% fluorescein sodium and were euthanized 5 minutes later. The eyes were removed and fixed in PBS-buffered formalin at room temperature for 5 hours. Then the retinas were dissected, washed, and incubated with primary anti-PECAM-1. The retinas were then washed, incubated with secondary antibody (goat anti-rat IgG conjugated with rhodamine), and then flat mounted.
Quantification of CNV lesion area is measured by PECAM-1 staining. Quantification of vascular leakage is measured by fluorescein sodium staining. The total area of leakage from CNV=CNV+leakage (green)−area of CNV (red). Values represent the mean±SEM for n=10 mice/group. […] This is a 50% reduction in neovascularization (p-0.018). […] This is approximately a 38% reduction (p-0.017) in blood vessel leakage.

[1] = Thermochallenge stability of antibody variants (TM); format: physicochemical
Procedure: iii. Stability. The humanized variants were tested for stability after challenge at high temperature. The approximate midpoints of the thermal unfolding transitions (TM) were determined for every humanized variant by subjecting the supernatants to temperatures ranging from 60 to 74° C. […] The binding properties of each variant were determined before and after thermochallenge.

[2] = test system: Matrigel plug neovascularization; assay: In vivo Matrigel plug assay for neovascularization (S1P, VEGF, bFGF); set-up: species or system mice
Procedure: Based on in vivo studies showing that S1P increased endothelial capillary growth into subcutaneously implanted Matrigel plugs, we speculated that SPHINGOMAB could reduce de novo BV formation in vivo. To investigate this, we employed the in vivo Matrigel Plug assay for neovascularization. In one set of experiments, Matrigel was supplemented with either 1 μM S1P, 0.5 μg/mL bFGF or 1 μg/mL VEGF and then […]. into mice (n=4). After 10 days, the mice were heparinized and injected with the fluorescent lectin, Isolectin B4-FITC, which binds to adhesion molecules expressed by vascular EC that form the growing BVs. The plugs were then excised, frozen in OCT, sectioned and viewed for FITC-stained BVs.
Sections of the plugs were then stained with hemotoxyln & eosin for evaluation of EC infiltration (FIG. 6B). The infiltration of ECs is a critical step in neo-vascularization. […] Cell infiltration is presumed to be ECs although we recognize that other cell types such as immune cells may also be stained.
Endogenous S1P from the blood and surrounding tissue could supply a wound with pro-angiogenic stimuli. The ability of SPHINGOMAB to reduce endogenous S1P in a wound was investigated. Optimally stimulated plugs (Matrigel supplemented with 0.5 μg/mL bFGF or […] VEGF) were implanted into mice. Mice received i.p. injections of 25 mg/kg SPHINGOMAB or saline every 48 hrs starting 1 day prior to Matrigel implantation. Each treatment group (Matrigel, Matrigel plus GF or Matrigel plus GF and administered SPHINGOMAB) consisted of a minimum of 6 mice. After 10 days, the mice were treated with heparin, injected with Isolectin B4-FITC, the plugs excised, embedded in OCT freezing medium and sectioned.

HUVECs = assay: HUVEC tube formation on GF-reduced Matrigel; format: cell-based, human; details: co-incubated with S1P
Procedure: FIG. 5 has two panels, A and B. In panel A, S1P is shown to promote neovascularization through induction of HUVECs tube formation and migration, which is reduced by SPHINGOMAB. […] The number of cells that migrated to the Matrigel membrane were counted in five independent fields.
Experiments were performed as described by Visentin et al. (Cancer Cell 2006 March; 9(3):225-38).

[3] = 25 mg/kg i.p. every 48 hrs, 10 days

Row | Molecule | reduction in blood vessel leakage vs saline (CNV and vascular leakage) [%] | reduction in neovascularization vs saline (CNV and vascular leakage) [%] | area of choroidal neovascularization (PECAM-1) (CNV and vascular leakage; one week after laser) | area of leakage from choroidal neovascularization (fluorescein) (CNV and vascular leakage; one week after laser) | TM (approximate midpoint of thermal unfolding transition) [1] [°C] | decrease in neovascularization of VEGF-containing plugs vs saline-treated animals [2, 3] [fold] | decrease in neovascularization of bFGF-containing plugs vs saline-treated animals [2, 3] [fold] | EC infiltration into S1P-containing Matrigel plugs ([2]; systemic, every 48 hrs) | formation of capillary-like structures (HUVECs)
1 | LT1009: humanized anti-S1P IgG1/kappa mAb with Cys to Ala in HCDR2, light chain with 5 backmutations; SEQ ID NO: 31/32 | ~38 | 50 | approximately 0.015 mm^2 | approximately 0.125 mm^2 | – | – | – | – | –
2 | LT1002: murine anti-S1P monoclonal antibody, IgG1 kappa, from hybridoma clone 306D326.26 (antibody, listed as Mus sp., V domains shown) VH: QAHLQQSDAELVKPGASVKISCKVSGFIFIDHTIHWMKQRPEQGLEWIGCISPRHDITKYNEMFRGKATLTADKSSTTAYIQVNSLTFEDSAVYFCARGGFYGSTIWFDFWGQGTTLTVS VL: ETTVTQSPASLSMAIGEKVTIRCITTTDIDDDMNWFQQKPGEPPNLLISEGNILRPGVPSRFSSSGYGTDFLFTIENMLSEDVADYYCLQSDNLPFTFGSGTKLEIK | – | – | – | – | 65 | 5 | 8.5 | reduced amount of EC infiltration | failed to form capillary-like structures
